Experiment [1] concerns HLB-infected citrus trees. Briefly: Citrus trials of Examples 20-24: fruit yield, size, count and drop, average over orange and grapefruit trials. In kind it is in vivo, Citrus sinesis; Citrus paradisi. Particulars: trunk injection (Table 64). The method, then:
All fruit with a diameter greater than or equal to 1.6 inches (40 mm) were hand-picked and collected for each tree. The total “Fruit Weight” (in kilograms) per individual tree was measured and recorded. Trees with total fruit weights less than or greater than 2 standard deviations (2STDEV) from the trial mean were considered to be outliers and removed from the dataset. Fruit size was assessed as the “Average Weight per Fruit” in grams (weight of 20 random fruit per tree, divided by 20) and “Average Fruit Diameter” in millimeters, as described in Example 1. The “Average Fruit Count” per tree was assessed as the total “Fruit Weight” divided by “Average Weight per Fruit”. “Fruit Drop” was assessed as for Example 1. Fruit quality was assessed as for Example 2, with the exception that one set of fruit consisted for 15 total fruit, each corresponding to a sampling of 3 fruit from 5 trees of the same experimental treatment block. Each set of 15 fruit were weighed (gram; g) and then juiced together. Average yield, % fruit drop, fruit size, and juice quality for each of the tested compositions are described in Examples 20-24.

Experiment [2] deals with Citrus trees infected with Candidatus Liberibacter asiaticus. It counts as in vivo, Citrus x paradisi. Particulars: […], trunk injection.
Experiment [3] concerns Citrus trees infected with CLas. Briefly: Recovery composition trunk injection: 'Valencia' orange fruit yield (Examples 3, 19). It counts as in vivo, Citrus sinesis.
For experiment [4] the test system is unchanged. Further details: species or system Citrus sinesis. Particulars: in vivo.
For experiment [5] the test system is unchanged. It counts as in vivo, Citrus x paradisi; Citrus sinesis. Particulars: average of 'Ruby Red' and 'Valencia'. From the text: Treatments as previously described in Example 3; β-1,3-Endoglucanase from barley SEQ ID NO: 731 (Treatment 1) and Bt.4Q7Flg22 from Bacillus thurigiensis SEQ ID NO: 226 (Treatment 5) increased fruit yield (kg/tree) as described in Table 56. Fruit quality, and juice quality of ‘Valencia’ oranges are described in Table 57.
For direct comparison of the treatment results between grapefruit (‘Ruby Red’) and orange (‘Valencia’) are referenced in Table 56 above.

Experiment [6] deals with Pseudomonas syringae pv. actinidiae (PSA-V). In kind it is in vivo. Particulars: at 6, 16 and 23 DAI; P<0.1.
Experiment [7] deals with corn hybrids Beck's 6127 BHMF and 6127 DVMF. Particulars: in vivo.
Experiment [8] deals with Cladosporium cladosporioides. It counts as in vivo. Particulars: 6 days.
Where [9] appears, read: 'Valencia' orange, trunk injection.

This note sets out measurements from patent publication US20250236878A1 (priority 2019, published 2025).

Like-named read-outs stand apart in the source and are kept apart here.

B1: Amylase from Bacillus subtilis 168: starch-degrading Amylase, trunk-injected at 92 U per tree (protein, UniProt P00691 42-659, looked up)
Alpha-amylase: LTAPSIKSGTILHAWNWSFNTLKHNMKDIHDAGYTAIQTSPINQVKEGNQGDKSMSNWYWLYQPTSYQIGNRYLGTEQEFKEMCAAAEEYGIKVIVDAVINHTTSDYAAISNEVKSIPNWTHGNTQIKNWSDRWDVTQNSLLGLYDWNTQNTQVQSYLKRFLDRALNDGADGFRFDAAKHIELPDDGSYGSQFWPNITNTSAEFQYGEILQDSASRDAAYANYMDVTASNYGHSIRSALKNRNLGVSNISHYASDVSADKLVTWVESHDTYANDDEESTWMSDDDIRLGWAVIASRSGSTPLFFSRPEGGGNGVRFPGKSQIGDRGSALFEDQAITAVNRFHNVMAGQPEELSNPNGNNQIFMNQRGSHGVVLANAGSSSVSINTATKLPDGRYDNKAGAGSFQVNDGKLTGTINARSVAVLYPDDIAKAPHVFLENYKTGVTHSFNDQLTITLRADANTTKAVYQINNGPETAFKDGDQFTIGKGDPFGKTYTIMLKGTNSDGVTRTEKYSFVKRDPASAKTIGYQNPNHWSQVNAYIYKHDGSRVIELTGSWPGKPMTKNADGIYTLTLPADTDTTNAKVIFNNGSAQVPGQNQPGFDYVLNGLYNDSGLSGSLPH
In the case of B1, in experiment [1], the “average increase in fruit weight relative to control” value was 5%.

B2: SEQ ID NO: 731: callose-degrading β-1,3-endoglucanase from barley (Hordeum vulgare) (protein)
chain: GVCYGVIGNNLPSRSDVVQLYRSKGINGMRIYFADGQALSALRNSGIGLILDIGNDQLANIAASTSNAASWVQNNVRPYYPAVNIKYIAAGNEVQGGATQSILPAMRNLNAALSAAGLGAIKVSTSIRFDEVANSFPPSAGVFKNAYMTDVARLLASTGAPLLANVYPYFAYRDNPGSISLNYATFQPGTTVRDQNNGLTYTSLFDAMVDAVYAALEKAGAPAVKVVVSESGWPSAGGFAASAGNARTYNQGLINHVGGGTPKKREALETYIFAMFNENQKTGDATERSFGLFNPDKSPAYNIQF
modifications: Hordeum vulgare
For B2, the “increased yield compared to the untreated control” value is given as 4.1 kg per tree in experiment [2] (harvested 20 months post-treatment) and 14.5 kg per tree in experiment [3] ('Valencia' trees, trunk injection). The “yield, average relative to control” value in experiment [3] ('Valencia', combined average of 2 sites (Table 56)) is on record as 124%. Also, in experiment [4], the “fruit size and ^oBrixc to Citric Acid ratio (Brix:CA) relative to the untreated control” value is reported as “increased”.

B3: B-1,3-Endoglucanase from Barley (SEQ ID NO: 731) (protein)
chain: GVCYGVIGNNLPSRSDVVQLYRSKGINGMRIYFADGQALSALRNSGIGLILDIGNDQLANIAASTSNAASWVQNNVRPYYPAVNIKYIAAGNEVQGGATQSILPAMRNLNAALSAAGLGAIKVSTSIRFDEVANSFPPSAGVFKNAYMTDVARLLASTGAPLLANVYPYFAYRDNPGSISLNYATFQPGTTVRDQNNGLTYTSLFDAMVDAVYAALEKAGAPAVKVVVSESGWPSAGGFAASAGNARTYNQGLINHVGGGTPKKREALETYIFAMFNENQKTGDATERSFGLFNPDKSPAYNIQF
modifications: Hordeum vulgare
Consider B3, for which, in experiment [2], the “Average Yield (Relative to Untreated)” value is “(112%)” and the “Average Yield (kg per tree)” value is listed as 38.7 kg per tree. Also, in experiment [3] (setting [9]), the “Average Yield (Relative to Untreated)” value is reported as “(136%)” and the “Average Yield (kg per tree)” value is 54.8 kg per tree. Besides, in experiment [4], the “Average Fruit Diameter (Relative to Untreated)” value is listed as “(104%)”, the “Average Fruit Diameter (mm)” value is 62.76 mm, the “Brix:CA Ratio” value came out at 12.01 and the “Brix:CA Ratio (Relative to Untreated)” value is “(+0.76)”. Moreover, the “Average Yield (Relative to Untreated), Average of 2 sites” value in experiment [5] was “(124%)”.

B4: β-1,3-Endoglucanase from Barley (SEQ ID NO: 731) (protein)
chain: GVCYGVIGNNLPSRSDVVQLYRSKGINGMRIYFADGQALSALRNSGIGLILDIGNDQLANIAASTSNAASWVQNNVRPYYPAVNIKYIAAGNEVQGGATQSILPAMRNLNAALSAAGLGAIKVSTSIRFDEVANSFPPSAGVFKNAYMTDVARLLASTGAPLLANVYPYFAYRDNPGSISLNYATFQPGTTVRDQNNGLTYTSLFDAMVDAVYAALEKAGAPAVKVVVSESGWPSAGGFAASAGNARTYNQGLINHVGGGTPKKREALETYIFAMFNENQKTGDATERSFGLFNPDKSPAYNIQF
modifications: Hordeum vulgare
For the molecule B4, the “Average Yield (kg per tree)” value in experiment [2] (harvested 20 months post-treatment, Bt.4Q7Flg22 0.33 mg/tree, endoglucanase 2600 U/tree, mixture 660 U + 660 U + 0.27 mg/tree) worked out at 38.7 kg per tree. The “Average Yield (kg per tree) Relative to Untreated” value in experiment [2] (untreated = 34.6) is “(112%)”.

B5: Serine Protease 2: serine protease 2 cloned from Bacillus subtilis, four substitutions relative to SEQ ID NO: 722 (protein, listed as Bacillus subtilis)
chain: SSKTSADLEKAEVFGDIDMTTSKKTTVIVELKEKSLAEAKEAGESQSKSKLKTARTQAKNKAIKAVKNGKVNREYEQVFSGFSMKLPANEIPKLLAVKDVKAVYPNVTYKTDNMKDKDVTISEDAVSPQMDDSAPYIGANDAWDLGYTGKGIKVAIIDTGVEYNHPDLKKNFGQYKGYDFVDNDYDPKETPTGDPRGEATDHGTHVAGTVAANGTIKGVAPDATLLAYRVLGPGGSGTTENVIAGVERAVQDGADVMNLSLGNSLNNPDWATSTALDWAMSEGVVAVTSNGNSGPNGWTVGSPGTSREAISVGATQLPLDEYAVTFGSYSSAKVMGYNKEDDVKALNNKEVELVEAGIGEAKDFEGKDLTGKVAVVKRGSIAFVDKADNAKKAGAIGMVVYNNLSGEIEANVPGMSVPTIKLSLEDGEKLVSALKAGETKTTFKLTVSKALGEQVADFSSRGPVMDTWMIKPDISAPGVNIVSTIPTHDPDHPYGYGSKQGTSMASPHIAGAVAVIKQAKPKWSVEQIKAAIMNTAVTLKDSDGEVYPHNAQGAGSARIMNAIKADSLVSPGSCSYGTFLKENGNETKNETFTIENQSSIRKSYTLEYSFNGSGISTSGTSRVVIPAHQTGKATARVKVNTKKTKAGTYEGTVIVREGGKTVAKVPTLLIVKEPDYPRVTSVSVSEGSVQGTYQIETYLPAGAEELAFLVYDSNLDFAGQAGIYKNQDKGYQYFDWDGTINGGTKLPAGEYYLLAYAANKGKSSQVLTEEPFTVE
B5: the “PSA-V leaf spot symptoms in comparison to the untreated control” value in experiment [6] is given as “significantly reduced”.

B6: ACC deaminase: 1-aminocyclopropane-1-carboxylate deaminase polypeptide with two substitutions relative to wild type (protein, listed as Bacillus thuringiensis)
chain: MNLAKFPRKKYTESYTPIEKLNNFSEALGGPTIYFKRDDLLGLTAGGNKTRKLEFLVADAQEKGADTLITAGGIQSNHCRLTLAAAVKEKMKCILVLEEGLEPEEKRDFNGNYFLYHLLGAENVIVVPNGADLMEEMNKVAKEVSEKGSTPYVIPVGGSNPTGAMGYVACAQEIMAQSFEQGIDFSSVVCVSGSGGMHAGLITGFSGTQSHIPVIGINVSRGKAEQEEKVAKLVDETSAHVGIPNFISRDAVTCFDEYVGPGYALPTPEMVEAVQLLAKTEGILLDPVYEGKAVAGLIDLIRKGKFNKEDNILFVHLGGSPALYANTSLFA
B6: in experiment [7], the “average yield benefit over the control corn plants” value is on record as “+7.16 flu/Ac”.

B7: β-1,3-endoglucanase (DK-1) Cellulosimicrobium cellulans (SEQ ID NO: 772) (protein)
chain: APGDLLWSDEFDGAAGSAPNPAVWNHETGAHGWGNAELQNYTASRANSALDGQGNLVITARREGDGSYTSARMTTQGKYQPQYGRIEARIQIPRGQGIWPAFWMLGGSFPGTPWPSSGEIDIMENVGFEPHRVHGTVHGPGYSGGSGITGMYQHPQGWSFADTFHTFAVDWKPGEITWFVDGQQFHRVTRASVGANAWVFDQPFFLILNVAVGGQWPGYPDGTTQLPQQMKVDYVRVYDNGSGSSNPGNPGTGLPTGTGAVRAANGMCIDVPWADPTDGNPVQIVTCSGNAAQTWTRGSDGTVRALGKCLDVRDGSTTRGAAVQVWTCNGTGAQKWAYDAGSKALRNPQSGLCLDATGGAPLHDGQRLQTWTCNGTTAQQWTL
modifications: Cellulosimicrobium cellulans strain DK-1
As for B7, in experiment [8], the “Observed mold growth spots (out of 18 inoculated)” value is 12 spots (out of 18 inoculated) and the “Percent of mold growth relative to control (mold only)” value came out at 85%.
